US20060105444A1, “O-fucosyltransferase” (Genentech, Inc., priority 1997, published 2006)

Biological target: T1, purified O-fucosyltransferase (Cricetulus griseus, UniProt P83337)
T1 construct: endogenous in cells; host or cells: CHO cell paste (enzyme); E. coli periplasm (EGF substrates)
Test: Acceptor substrate specificity: fucosyltransferase assay with Factor IX EGF domain mutants
Assay type: biochemical, CHO cells (Chinese hamster ovary)
Conditions: for Fucose (cpm): human Factor IX EGF domain or mutant as acceptor substrate, 14C-fucose incorporated; for acceptor substrate for the O-fucosyltransferase (in words): recombinant Factor IX EGF domains, assay counts and LC/MS of fucosylation product
Description: A reaction volume of 50 μl contained the following ingredient: 0.1 M imidazole-HCl, pH 7.0; 50 mM MnCl2; 0.1 mM GDP-^14C-Fucose (4000-8000 cpm/nmol), 20 μM recombinant human Factor VII EGF-1 domain and about 0.01-0.1 milliunit of enzyme activity. The mixture was incubated at 37° C. for 10-20 minutes. The reaction was stopped by placing the mixture on ice, then diluting with 950 μl of 0.25 M EDTA, pH 8.0. Separation of incorporated fucose from GDP-fucose, fucose-phosphate and free fucose was carried out by passing the solution through a C18 cartridge (Alltech, Extract Clean, C18, 200 mg). The cartridge was washed with 5 ml of H2O, and the product was then eluted with 3 ml of 80% acetonitrile containing 0.052% TFA. The eluant was mixed with 10 ml Aquasol II (NEN/Du Pont) and counted using a liquid scintillation counter.
As described previously, all the O-fucosylation on EGF domains occur within the putative consensus sequence CXXGGSC (SEQ ID NO: 1) or alternatively CXXGGTC (SEQ ID NO: 21). […] Three mutants were constructed using alanine to replace either of the two or both glycine residues and tested as acceptor substrate for the purified O-fucosyltransferase. Assays using the four recombinant EGF domains all gave positive counts. It appeared that the two glycine residues were not absolutely required for activity.
In order to determine if all the different forms of the mutants served as substrate for the O-fucosyltransferase, reverse-phase HPLC online with electrospray mass spectrometry was used to analyze the product of the fucosylation reaction. Shown in FIG. 8 is the experiment using the mutant ala-ala. Analysis of the other tested mutants gave similar results. […] The enzyme O-fucosyltransferase required its substrate in order to have the proper three dimensional structure in order to function properly.

Substance | Fucose (cpm) | acceptor substrate for the O-fucosyltransferase (in words)
EGF (wild type): Recombinant human Factor IX EGF domain, wild type, sequence -CLNGGSC- (SEQ ID NO: 20) (KRYNSGKLEEFVQGNLERECMEEKCSFEEAREVFENTERTTEFHHHHHHGSA) | 12062 | better substrate than the mutants
EGF.AA: Recombinant human Factor IX EGF domain mutant, sequence -CLNAASC- (SEQ ID NO: 17), both glycines replaced by alanine | 1818 | only one of the four differently folded species served as an acceptor substrate
EGF.AG: Recombinant human Factor IX EGF domain mutant, sequence -CLNAGSC- (SEQ ID NO: 18) (KRYNSGKLEEFVQGNLERECMEEKCSFEEAREVFENTERTTEFHHHHHHGSA) | 4585 | 
